This is an account of results in publication doi:10.1101/2020.08.19.257725 (bioRxiv, 2020).

Assay [1] addresses cynomolgus monkey albumin (Macaca fascicularis, UniProt A2V9Z4). The assay can be described thus: pull-down.
In assay [2] the target is T1, mouse albumin (Mus musculus, UniProt P07724). As to the kind of experiment: pull-down.
The target in assay [3] is T2, Human serum albumin (Homo sapiens, UniProt P02768). The assay can be described thus: pull-down.
The target in assay [4] is T2, Human serum albumin. As to the kind of experiment: SPR. (SPR reads the build-up and loss of mass on a sensor chip optically.)
Assay [5] deals with T1, mouse albumin. As to the kind of experiment: ELISA.

T1 sequence (P07724 25-608): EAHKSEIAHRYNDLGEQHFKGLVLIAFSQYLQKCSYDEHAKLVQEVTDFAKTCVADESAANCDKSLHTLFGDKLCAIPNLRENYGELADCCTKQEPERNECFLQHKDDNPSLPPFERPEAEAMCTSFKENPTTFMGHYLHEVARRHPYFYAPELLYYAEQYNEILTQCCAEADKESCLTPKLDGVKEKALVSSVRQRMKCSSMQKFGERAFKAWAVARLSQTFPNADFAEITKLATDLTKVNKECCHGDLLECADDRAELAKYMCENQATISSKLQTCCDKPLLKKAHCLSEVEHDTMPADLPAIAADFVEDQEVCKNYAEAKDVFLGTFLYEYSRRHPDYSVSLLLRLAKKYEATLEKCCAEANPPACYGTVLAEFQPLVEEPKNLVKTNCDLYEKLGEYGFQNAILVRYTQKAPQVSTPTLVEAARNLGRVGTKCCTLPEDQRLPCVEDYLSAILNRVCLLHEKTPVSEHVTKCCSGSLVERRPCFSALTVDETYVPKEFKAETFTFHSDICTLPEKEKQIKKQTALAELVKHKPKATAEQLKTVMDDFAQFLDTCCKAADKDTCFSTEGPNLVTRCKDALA
Sequence of cynomolgus monkey albumin (A2V9Z4 25-608): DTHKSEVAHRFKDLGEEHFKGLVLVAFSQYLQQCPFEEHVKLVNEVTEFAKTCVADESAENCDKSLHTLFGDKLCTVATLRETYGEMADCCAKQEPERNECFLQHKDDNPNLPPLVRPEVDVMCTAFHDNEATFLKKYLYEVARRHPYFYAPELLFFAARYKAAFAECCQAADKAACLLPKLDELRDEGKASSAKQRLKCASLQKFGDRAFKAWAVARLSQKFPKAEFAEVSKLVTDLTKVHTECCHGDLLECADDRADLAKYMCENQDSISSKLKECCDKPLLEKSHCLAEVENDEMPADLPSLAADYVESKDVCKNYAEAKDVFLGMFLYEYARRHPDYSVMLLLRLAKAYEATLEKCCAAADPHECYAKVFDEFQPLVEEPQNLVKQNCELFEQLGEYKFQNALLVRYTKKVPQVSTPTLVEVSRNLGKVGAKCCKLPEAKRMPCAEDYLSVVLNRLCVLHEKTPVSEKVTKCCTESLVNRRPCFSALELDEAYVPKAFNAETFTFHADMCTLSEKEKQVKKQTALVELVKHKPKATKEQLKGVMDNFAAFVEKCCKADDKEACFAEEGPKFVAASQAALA

B1: Nb132 (VHH)
VHH: HVQLVESGGGLVQAGGSLRLSCAASGGTISNYGMGWLRQGPGKEREFVGSINWNGATTHYADSVKGRFIISRDNAKNTVYLQMNSLKPEDTGVYYCVAQFSVQPTLRTYDYGGQGTQVTVSE
For B1, the binding result in assay [1], in assay [2] and in assay [3] was “binds” each time.

B2: Nb126 (VHH)
VHH: QVQLVESGGGLVQAGGSLRLSCAASGLTFSNYVMGWFRQAPGKEREFVAYIHWSGGRILYADSVKGRFTISRDNTKNTMYLQMNSLKPDDTAVYYCTADQYATTVLRAAGEYWGQGTQVTVSE
Molecule B2 had a Kd in assay [4] of 0.251 nM.

B3: Nb80 (VHH)
VHH: EVQLVESGGGLVQAGGSLRLSCTASGRTFTPYTMGWFRQAPGKEREFVASILWSGNNRDYADSVKGRFAISRDNAKNTAYLQMTSLKPEDTAVYYCAAGDGLGFYRSVNQYDYWGQGTQVTVS
Consider B3, for which the binding result in assay [5] is “binds”. In addition, the affinity in assay [4], expressed as Kd, was 0.166 nM.

B4: Nb77 (VHH)
VHH: QVQLVESGGGLVQAGGSLRLSCTASGRTYEPLVMGWFRQAPGKEREFVATITPSGGSLSYADSVKGRFTVSRDNAKKTVYLQMNRLQPEDTAVYYCAAAPGVGNYRYTRQYDYWGQGTQVTVSE
With B4, in assay [5], the binding result is given as “binds”.

B5: Nb13 (VHH)
VHH: HVQLVESGGELVQAGGSLRLSCAASGRTFSNYAMGWFRQAPGTEREFVAAISRSGGSTYYADSVKGRFIISRDNAKNTVWLQMNMLKPEDTSVYYCAAAEGLASGSYDYAPPLKSSWYDYWGQGTQVTVSE
On to B5, for which the Kd in assay [4] worked out at 0.201 nM.

For orientation: Kd means the equilibrium constant for the complex coming apart.
